According to article PMC5714350:

Key:
Conditions in all cases: other: dynamic light scattering
[1] = dynamic light scattering; FXN^81-210 2.5 mg/ml (0.17 mM) with ammonium iron (II) sulfate, aerobic, Fe2+:protein 2:1, 4:1, 5:1, 6:1, 10:1; room temperature; profiles every 5 min for 2 h; volume distribution
[2] = dynamic light scattering; FXN^81-210 with Fe2+ 6:1 for 15 min, then chelator (deferiprone, DFO or BIPY) at 3 times the amount of iron; room temperature
[3] = dynamic light scattering; FXN^81-210 with ferric iron (FeCl3 in HEPES pH 7.5), Fe3+:protein 6:1, 8:1, 10:1

Human frataxin isoform 81–210 (FXN^81-210)
% of particles in the monomer range (hydrodynamic radius 1.6–2.1 nm), with iron (Fe2+ 6:1) [1]: 92%
% of particles with hydrodynamic radius 6–8.5 nm (oligomers), with iron (Fe2+ 6:1) [1]: 8%
% of particles with mean hydrodynamic radius of about 5 nm (oligomers), with iron (Fe2+ 10:1, 60 min) [1]: The major fraction of the oligomers (88%)
% of particles in the monomer range (hydrodynamic radius 1.6–2.1 nm), with iron (Fe2+ 6:1) and BIPY [2]: 92%
% of particles in the monomer range (hydrodynamic radius 1.6–2.1 nm), with iron (Fe2+ 6:1) and deferiprone [2]: 97%
% of particles with hydrodynamic radius 6–8.5 nm (oligomers), with iron (Fe2+ 6:1) and BIPY [2]: 8%
% of particles with hydrodynamic radius 6–8.5 nm (oligomers), with iron (Fe2+ 6:1) and DFO [2]: 95%
% of particles with hydrodynamic radius 8.5–14 nm (oligomers), with iron (Fe2+ 6:1) and deferiprone [2]: 3%
% of particles with hydrodynamic radius 15–25 nm (oligomers), with iron (Fe2+ 6:1) and DFO [2]: 5%
% of particles in the monomer range (hydrodynamic radius 1.6–3 nm), with iron (Fe3+ 6:1) [3]: 97%
% of particles with hydrodynamic radius 6–8.5 nm (oligomers), with iron (Fe3+ 8:1) [3]: 84.4%
% of particles with hydrodynamic radius 8.5–14 nm (oligomers), with iron (Fe3+ 6:1) [3]: 3%
% of particles with hydrodynamic radius 8.5–14 nm (oligomers), with iron (Fe3+ 10:1) [3]: 86.8%
% of particles with hydrodynamic radius 15–25 nm (oligomers), with iron (Fe3+ 8:1) [3]: 15.6%
